This test has as its target HA of the 1918 pandemic strain, A/Brevig Mission/1/1918 (H1N1) (influenza A virus A/Brevig …, UniProt Q9WFX3 18-529). Put plainly: ELISA (FIG. 3B, FIG. 8A).

HA of the 1918 pandemic strain, A/Brevig Mission/1/1918 (H1N1), sequence (Q9WFX3 18-529 limits assumed): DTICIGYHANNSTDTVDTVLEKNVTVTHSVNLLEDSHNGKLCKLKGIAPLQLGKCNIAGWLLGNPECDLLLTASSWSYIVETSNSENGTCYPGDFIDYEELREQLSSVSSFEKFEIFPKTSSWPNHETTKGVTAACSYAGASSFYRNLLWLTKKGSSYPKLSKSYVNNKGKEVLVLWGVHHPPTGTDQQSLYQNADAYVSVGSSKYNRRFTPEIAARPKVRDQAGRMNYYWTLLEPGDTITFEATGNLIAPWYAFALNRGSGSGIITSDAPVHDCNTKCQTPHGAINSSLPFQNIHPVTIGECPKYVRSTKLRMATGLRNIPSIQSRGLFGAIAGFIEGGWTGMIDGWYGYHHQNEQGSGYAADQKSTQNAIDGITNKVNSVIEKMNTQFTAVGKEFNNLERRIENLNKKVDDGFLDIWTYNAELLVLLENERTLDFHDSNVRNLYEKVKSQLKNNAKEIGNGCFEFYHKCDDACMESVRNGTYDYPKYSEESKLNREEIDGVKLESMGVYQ

B1: 70-5B03 (antibody, V domains shown)
VH: QVQLVQSGAEVKKPGSSVKVSCKASGGTFRNFAVSWVRQAPGQGPEWMGGIIAIFGTAKYAQKFQGRVTISADESTRIVQMELSSLRSDDTAIYYCASSSGSYYGDYFDYWGQGTLVTVSS
VL: EIVMTQSPATLSVSPGERATLSCRASQSVSSNLAWYQQTPGQAPRLLIYAASSRATGIPARFSGSGSGTEFTLSISSLQPEDFAVYYCQQYNNWPRTFGQGTKVEIK
As to B1, the binding result was “binds”.

For the origin of these results see patent US9469685 (UNIVERSITY OF CHICAGO, dated 2016).
